{
  "source": "paper PMC4114559",
  "about": "“Pigment Dispersing Factor Regulates Ecdysone Biosynthesis via Bombyx Neuropeptide G Protein Coupled Receptor-B2 in the Prothoracic Glands of Bombyx mori” (PLoS ONE, 2014)",
  "molecules": {"B1": {"name": "PTTH: prothoracicotropic hormone, humoral pathway-mediated tropic hormone (protein, UniProt P17219 116-224, looked up)", "Prothoracicotropic hormone": "GNIQVENQAIPDPPCTCKYKKEIEDLGENSVPRFIETRNCNKTQQPTCRPPYICKESLYSITILKRRETKSQESLEIPNELKYRWVAESHPVSVACLCTRDYQLRYNNN", "modifications": "Prothoracicotropic hormone"}},
  "key": {"ERK": {"tested_on": "ERK", "test": "p-ERK level in cultured PGs (Western blot)", "format": "cell-based, Bombyx mori", "details": "15 min, immunoblotting", "experimental": "Dissected PGs were rinsed with Grace's insect culture medium (Gibco) and pre-cultured individually in 100 µl medium in 96-well plates (BD Falcon) at 25°C for 30 min. To evaluate the effect of extracellular Ca^2+ on ecdysone biosynthesis, lepidopteran saline and lepidopteran saline using NaCl as a replacement for CaCl2 were used. For the pharmacological analysis, the PG was pre-treated with the inhibitor for 15 min during the pre-culture period. Following this treatment, the PG was cultured in the desired conditions for the desired period (Ecdysone assay: 3 hours; cAMP assay: 30 min; and Protein phosphorylation assay: 15 min). […]\nDissected PGs were pre-cultured in Grace's culture medium for 30 min, then cultured with or without PDF or PTTH for 15 min. The cultured PGs were sonicated in 50 mM Tris-HCl (pH 6.8) with protease inhibitor cocktail (Complete, Roche) and phosphatase inhibitor cocktail (Wako), lysed in 1x SDS sample buffer excluding 2-mercaptoethanol (2ME) and bromophenol blue (BPB), and the protein concentration was measured using the BCA protein assay kit (Pierce). […]\nFigure 4 Signaling pathways involved in PDF-induced ecdysone biosynthesis. […] The transcript levels of nvd, nm-g, spo, phm, dib and sad were quantified with Q-PCR. […] Statistically significant differences were evaluated by Student's t-test (***P<0.001, **P<0.01). […]"}, "[1]": {"tested_on": "nvd, nm-g, spo, phm, dib and sad", "details": "ref [8]; cited from earlier work", "from_the_text": "Ecdysone is the key regulator of insect growth and development. Ecdysone is synthesized in the PGs and the biosynthesis is intricately regulated by several neuropeptides. To date, four prothoracicotropic peptides (PTTH, FXPRL-amides, insulin and orcokinins) and three prothoracicostatic peptides (PTSP, Bommo-myosuppressin and Bommo-FMRF-amides) have been identified in Bombyx mori. The participation of four cytochrome P450 (CYP) enzymes (CYP307A1, Spook (Spo); CYP306A1, Phantom (Phm); CYP302A1, Disembodied (Dib); CYP315A1, Shadow (Sad)); an oxygenase-like protein, Neverland (Nvd); and a sh ... || Because PDF increased the intracellular cAMP level in PGs, the involvement of PKA in the PDF signaling pathway was expected. […] In mammals, most of the CYP enzymes involved in steroid hormone biosynthesis are transcriptionally regulated. In PTTH- and dbcAMP-induced ecdysone biosynthesis, ecdysone biosynthesi ..."}},
  "data": [
    {"molecule": "B1", "values": [
      {"measurement": "level of p-ERK", "setting": "ERK", "value": "upregulated"},
      {"measurement": "transcript level of ecdysone biosynthetic enzymes (literature)", "setting": "[1]", "value": "upregulated the transcript level of some ecdysone biosynthetic enzymes"},
      {"measurement": "transcript levels of spo, dib and phm (literature)", "setting": "[1]", "value": "upregulated by PTTH"}
    ]}
  ]
}
